Measured values: patent publication CN105330739A

Columns and labels:
[1] = molecular target: huVEGF 165 (human); test: indirect ELISA on coated huVEGF, antibody at 16 ng/ml
[2] = molecular target: huVEGF 165 (human); test: indirect ELISA on coated huVEGF, antibody at 80 ng/ml
[3] = molecular target: huVEGF 165 (human); test: indirect ELISA on coated huVEGF, antibody at 3.2 ng/ml
[4] = molecular target: huVEGF 165 (human); test: indirect ELISA on coated huVEGF, antibody at 400 ng/ml
[5] = molecular target: huVEGF 165 (human); test: indirect ELISA on coated huVEGF, antibody at 0.64 ng/ml
[6] = molecular target: huVEGF 165 (human); test: indirect ELISA on coated huVEGF, antibody at 0.128 ng/ml
[7] = molecular target: huVEGF 165 (human); test: indirect ELISA on coated huVEGF, antibody at 0.0256 ng/ml
[8] = molecular target: huVEGF 165 (human); test: indirect ELISA on coated huVEGF, antibody at 0.00512 ng/ml
[9] = molecular target: huVEGF 165 (human); test: indirect ELISA, huVEGF coated at 0.5 ug/ml, four-parameter fit

Sequence of huVEGF 165 (human) (chain, as listed by the source, form in doubt): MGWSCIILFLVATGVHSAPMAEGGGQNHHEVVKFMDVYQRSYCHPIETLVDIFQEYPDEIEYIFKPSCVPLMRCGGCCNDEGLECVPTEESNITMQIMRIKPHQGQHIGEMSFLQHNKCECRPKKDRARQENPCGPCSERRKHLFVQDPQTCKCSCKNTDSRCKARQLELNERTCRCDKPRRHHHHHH

OD450 复孔1 [1]: 3 OD450
OD450 复孔2 [1]: 2.9 OD450
OD平均 [1]: 2.95 OD450
OD450 复孔1 [2]: 3.33 OD450
OD450 复孔2 [2]: 3.31 OD450
OD平均 [2]: 3.32 OD450
OD450 复孔1 [3]: 1.83 OD450
OD450 复孔2 [3]: 1.92 OD450
OD平均 [3]: 1.87 OD450
OD450 复孔1 [4]: 3.53 OD450
OD450 复孔2 [4]: 3.44 OD450
OD平均 [4]: 3.49 OD450
OD450 复孔1 [5]: 0.572 OD450
OD450 复孔2 [5]: 0.614 OD450
OD平均 [5]: 0.59 OD450
OD450 复孔1 [6]: 0.208 OD450
OD450 复孔2 [6]: 0.214 OD450
OD平均 [6]: 0.21 OD450
OD450 复孔1 [7]: 0.132 OD450
OD450 复孔2 [7]: 0.135 OD450
OD平均 [7]: 0.13 OD450
OD450 复孔1 [8]: 0.115 OD450
OD450 复孔2 [8]: 0.118 OD450
OD平均 [8]: 0.12 OD450
EC50 [9]: 0.02 nM
B1: NevegiMab抗体 (antibody, V domains shown)
VH: EVKLQESGPELKKPGETVKISCKASGYTFTNYGLNWVKQAPGKGLKWMGWINTYTGEPTYADDFKGRFAFSLETSASTAYLQINNLKNEDMATYFCAKYGITYEWYFDVWGAGTTVTVSS
VL: DIVLTQSTSSLSASLGDRVTISCRASQDISNSLNWYQQKPNGTVILLIYYTSRLHSGVPSRFSGSGSGAVYSLTISDLEQEDIATYFCQQGNTFPWTFGGGTKLEIKR
